Experimental data as given in patent publication US20110183358A1 (published 2011).
One block for each molecule: values may come before it. Square brackets hold non-standard residues; d marks the D form. Ends that are not written are not given here. * marks the point of attachment. Phe(4-Cl) = N[C@@H](Cc1ccc(Cl)cc1)C(=O)O; 2Nal = N[C@@H](Cc1ccc2ccccc2c1)C(=O)O; d2Nal = N[C@H](Cc1ccc2ccccc2c1)C(=O)O; Fmoc = O=C(OCC1c2ccccc2-c2ccccc21)*; 2Thi = N[C@@H](Cc1cccs1)C(=O)O; Cha = N[C@@H](CC1CCCCC1)C(=O)O; d2Thi = N[C@H](Cc1cccs1)C(=O)O; dCha = N[C@H](CC1CCCCC1)C(=O)O

Experiments:
[1] = molecular target: glutathione-S-transferase-BIR2 fusion protein (GST-BIR2) (human) (UniProt P98170); assay: fluorescence polarization; 400 nM rhodamine-SMAC, GST-BIR2 0.05 to 20 µM
GST-BIR3RING (human) = GST-BIR3RING (human) (UniProt P98170); assay: fluorescence polarization; 400 nM rhodamine-SMAC, GST-BIR3RING 0.02 to 6 µM
full length XIAP = full length XIAP (human, UniProt P98170 1-497); assay: cell-based or functional assay
GST-XIAP [2] = molecular target: T1, GST-XIAP (human, UniProt P98170 1-497); assay: cell-based or functional assay
GST-XIAP [3] = molecular target: T1, GST-XIAP; assay: cell-based or functional assay; remark: listed apart in the source

T1 sequence (P98170 whole entry): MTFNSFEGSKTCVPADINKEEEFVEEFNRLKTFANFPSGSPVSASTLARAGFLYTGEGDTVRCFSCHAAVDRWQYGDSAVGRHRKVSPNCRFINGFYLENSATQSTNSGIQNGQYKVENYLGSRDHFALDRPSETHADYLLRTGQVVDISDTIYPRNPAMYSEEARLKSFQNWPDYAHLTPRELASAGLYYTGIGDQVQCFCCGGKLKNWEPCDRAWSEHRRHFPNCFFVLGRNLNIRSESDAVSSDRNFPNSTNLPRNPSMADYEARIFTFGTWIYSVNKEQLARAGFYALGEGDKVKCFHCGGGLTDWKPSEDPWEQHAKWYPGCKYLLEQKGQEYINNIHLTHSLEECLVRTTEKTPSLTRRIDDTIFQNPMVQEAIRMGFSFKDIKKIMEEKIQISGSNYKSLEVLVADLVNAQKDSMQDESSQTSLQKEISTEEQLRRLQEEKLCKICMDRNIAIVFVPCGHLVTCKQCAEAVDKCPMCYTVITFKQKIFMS
Sequence of full length XIAP (P98170 whole entry): as above
Sequence of GST-BIR3RING (human) (P98170 243-497): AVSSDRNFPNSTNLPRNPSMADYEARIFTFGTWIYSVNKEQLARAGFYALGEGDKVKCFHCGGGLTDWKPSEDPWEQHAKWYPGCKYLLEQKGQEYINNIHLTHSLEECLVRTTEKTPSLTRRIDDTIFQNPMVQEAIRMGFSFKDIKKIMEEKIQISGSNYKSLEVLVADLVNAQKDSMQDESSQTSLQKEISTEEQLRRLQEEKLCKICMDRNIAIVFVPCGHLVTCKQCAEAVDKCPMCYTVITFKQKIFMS
Sequence of glutathione-S-transferase-BIR2 fusion protein (GST-BIR2) (human) (P98170 124-240): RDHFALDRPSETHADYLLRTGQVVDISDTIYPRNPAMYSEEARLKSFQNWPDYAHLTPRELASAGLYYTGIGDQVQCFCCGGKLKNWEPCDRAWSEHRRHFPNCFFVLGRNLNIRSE

Kd [1]: 20 µM
Kd (GST-BIR3RING (human)): 0.28 µM
Molecule: rhodamine labeled SMAC (rhodamine-SMAC) (peptide)

EC50 (amount of compound necessary to restore caspase-3 activity to 50% of Vmax) (full length XIAP): 24 µM
Relative Potency (against SMAC AVPI tetrapeptide) (full length XIAP): 5.2 fold
Molecule: [2Thi][2Nal][Phe(4-Cl)]K(Fmoc) [TPI 792-33]

ratio of Vmax for hydrolysis of Ac-DEVD-AFC in the presence and absence of the species (GST-XIAP [2]): 2.4 ratio
Molecule: [2Nal][dCha]W[dW] [1352-66]

Vmax(mix + casp3 + XIAP)/Vmax(casp3 + XIAP) (GST-XIAP [3]): 3.8 ratio
Molecule: H-AVPIAQK-NH2 [SMAC peptide (H-Ala-Val-Pro-Ile-Ala-Gln-Lys-NH2)]

ratio of Vmax for hydrolysis of Ac-DEVD-AFC in the presence and absence of the species (GST-XIAP [2]): 2.4 ratio
Molecule: [Cha][d2Nal]W[2Thi] [1332-41]

ratio of Vmax for hydrolysis of Ac-DEVD-AFC in the presence and absence of the species (GST-XIAP [2]): 2.4 ratio
Molecule: A[dW]W[2Thi] [1352-6]

ratio of Vmax for hydrolysis of Ac-DEVD-AFC in the presence and absence of the species (GST-XIAP [2]): 2.4 ratio
Molecule: A[dW]W[2Thi] [1332/1352-47]

ratio of Vmax for hydrolysis of Ac-DEVD-AFC in the presence and absence of the species (GST-XIAP [2]): 2.4 ratio
Molecule: [2Nal][d2Thi][dF][dW] [1352-72]

ratio of Vmax for hydrolysis of Ac-DEVD-AFC in the presence and absence of the species (GST-XIAP [2]): 2.4 ratio
Molecule: AWW[2Thi] (not fully specified) [1332/1352-1]

EC50 (amount of compound necessary to restore caspase-3 activity to 50% of Vmax) (full length XIAP): 51 µM
Relative Potency (against SMAC AVPI tetrapeptide) (full length XIAP): 2.5 fold
Molecule: [2Thi][2Nal][dK](Fmoc)K(Fmoc) [TPI 792-35]
